Measured values from patent US20080081035.

T1: human recombinant IFN-γ, P01579
T1 chain: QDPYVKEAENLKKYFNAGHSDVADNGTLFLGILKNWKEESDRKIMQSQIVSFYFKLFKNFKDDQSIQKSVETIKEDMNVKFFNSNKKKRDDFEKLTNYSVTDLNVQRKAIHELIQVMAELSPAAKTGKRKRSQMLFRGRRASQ

T2: mouse recombinant TNF-α, P06804
T2 chain: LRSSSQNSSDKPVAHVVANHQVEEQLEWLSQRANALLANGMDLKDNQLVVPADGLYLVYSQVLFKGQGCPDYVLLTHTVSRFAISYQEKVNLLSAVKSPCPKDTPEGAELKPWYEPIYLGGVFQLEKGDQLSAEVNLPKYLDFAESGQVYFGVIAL

T3: D-val-leu-lys-pNA
T3 chain: VLK

T4: mouse recombinant IFN-γ, P01580
T4 chain: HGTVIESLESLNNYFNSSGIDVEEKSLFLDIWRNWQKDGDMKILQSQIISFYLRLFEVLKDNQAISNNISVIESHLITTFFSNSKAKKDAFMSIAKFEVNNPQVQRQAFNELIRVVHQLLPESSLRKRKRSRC


Columns and labels:
[1] = biological target: T1, human recombinant IFN-γ, P01579
[2] = biological target: human recombinant TNF-α, P01375
Chain of human recombinant TNF-α, P01375 (P01375 77-233): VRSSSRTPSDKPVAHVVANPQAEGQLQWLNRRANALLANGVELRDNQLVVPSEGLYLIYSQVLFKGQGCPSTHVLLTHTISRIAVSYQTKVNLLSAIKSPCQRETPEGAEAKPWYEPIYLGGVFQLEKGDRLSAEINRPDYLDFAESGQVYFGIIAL

[3] = biological target: T2, mouse recombinant TNF-α, P06804
[4] = biological target: T3, D-val-leu-lys-pNA
[5] = biological target: T4, mouse recombinant IFN-γ, P01580
[6] = biological target: Protamine sulfate from salmon

Protein | cleavage by Western blot [1] | proteolysis by Western blotting [2] | cleavage by Western blotting [3] | Specific activity: Val-leu-lys-pNA (mOD/min/µg protein) (mOD/min/µg protein) [4] | cleavage by Western blotting [5] | Specific activity: Salmon protamine (nmoles Leucine/30 min./µg protein) (nmoles Leucine/30 min./µg protein) [6]
Aspergillus oryzae alkaline protease (protein) GLTTQKSAPWGLGSISHKGQQSTDYIYDTSAGEGTYAYVVDSGVNVDHEEFEGRASKAYNAAGGQHVDSIGHGTHVSGTIAGKTYGIAKKASILSVKVFQGESSSTSVILDGFNWAANDIVSKKRTSKAAINMSLGGGYSKAFNDAVENAFEQGVLSVVAAGNENSDAGQTSPASAPDAITVAAIQKSNNRASFSNFGKVVDVFAPGQDILSAWIGSSSATNTISGTSMATPHIVGLSLYLAALENLDGPAAVTKRIKELATKDWKDVKGSPNLLAYNGNA | the protease did not cleave human IFN-γ | produced a similar pattern of cleavage | evidenced the same substrate specificity | 117 | evidenced the same substrate specificity | 951
Aspergillus oryzae Deuterolysin (Neutral Protease II) (protein) TEVTDCKGDAESSLTTALSNAAKLANQAAEAAESGDESKFEEYFKTTDQQTRTTVAERLRAVAKEAGSTSGGSTTYHCNDPYGYCEPNVLAYTLPSKNEIANCDIYYSELPPLAQKCHAQDQATTTLHEFTHAPGVYQPGTEDLGYGYDAATQLSAQDALNNADSYALYANAIELKC | cleave human IFN-γ | deuterolysin was without significant effect | – | 2.3 | – | 677
Aspergillus oryzae 26 kDa protease (protein) HASADAWASSKAISSTSSPSSFKMRFISVSSLLLALAPALNAVPVEVAGSAQGLDVTLSQVGNTRIKAWKNTGSEDVTFVHLNFFKDAAPVQKVSLFRNATEVQFQGIKQRLITEGLSDDALTTLAPGATIEDEFDIASTSDLSEGGTITINSNGLVPITTDNKVTGYIPFTSNELSIDVDAAEAASVTQAVKILERRTKVTSCSGSRLSALQTALRNTVSLARAAATAAQSGSSSRFQEYFKTTSSSTRSTVAARLNAVANEAASTSSGSTTYYCSDVYGYCSSNVLAYTLPSYNIIANCDLYYSYLPALTSTCHAQDQATTTLHEFTHAPGVYSPGTDDLGYGYSAATALSASQALLNADTYALFANAVNLNC | cleave human IFN-γ | – | – | 2.1 | – | 679
